T1: human beta klotho expressed on cells (human, UniProt Q86Z14 1-1044)
T1 construct: also called HuKLB overexpressing cells; Human KLB
T1 sequence: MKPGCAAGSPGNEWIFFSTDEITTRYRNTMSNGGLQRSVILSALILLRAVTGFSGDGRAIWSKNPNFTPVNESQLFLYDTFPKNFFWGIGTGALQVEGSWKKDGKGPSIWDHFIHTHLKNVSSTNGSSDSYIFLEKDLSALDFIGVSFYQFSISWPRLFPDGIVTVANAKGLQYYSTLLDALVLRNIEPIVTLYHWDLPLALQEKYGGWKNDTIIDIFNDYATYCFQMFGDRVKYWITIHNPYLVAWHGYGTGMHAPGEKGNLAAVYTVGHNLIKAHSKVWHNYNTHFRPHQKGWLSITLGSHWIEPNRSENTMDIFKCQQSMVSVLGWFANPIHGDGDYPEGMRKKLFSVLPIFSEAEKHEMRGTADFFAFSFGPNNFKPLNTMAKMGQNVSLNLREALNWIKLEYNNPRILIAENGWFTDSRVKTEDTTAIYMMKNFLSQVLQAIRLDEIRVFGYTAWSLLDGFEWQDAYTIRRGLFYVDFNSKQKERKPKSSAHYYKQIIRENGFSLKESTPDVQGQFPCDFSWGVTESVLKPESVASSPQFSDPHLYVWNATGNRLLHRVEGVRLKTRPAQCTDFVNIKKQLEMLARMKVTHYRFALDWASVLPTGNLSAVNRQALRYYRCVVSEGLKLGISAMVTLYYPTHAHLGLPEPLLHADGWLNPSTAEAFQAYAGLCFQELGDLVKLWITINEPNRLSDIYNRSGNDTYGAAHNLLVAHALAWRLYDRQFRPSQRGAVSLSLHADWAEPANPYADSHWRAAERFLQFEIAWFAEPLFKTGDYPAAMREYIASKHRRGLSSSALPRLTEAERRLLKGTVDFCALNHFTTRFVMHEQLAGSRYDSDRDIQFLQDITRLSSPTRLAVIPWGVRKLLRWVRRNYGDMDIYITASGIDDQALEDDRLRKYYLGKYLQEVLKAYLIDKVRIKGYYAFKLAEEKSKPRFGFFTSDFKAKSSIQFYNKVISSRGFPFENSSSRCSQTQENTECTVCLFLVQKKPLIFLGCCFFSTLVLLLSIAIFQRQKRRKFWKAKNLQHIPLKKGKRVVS

T2: human beta klotho protein (soluble, used in Biacore) (human, UniProt Q86Z14 53-997, limits assumed)
T2 construct: also called HuKLB; huKLB
T2 sequence: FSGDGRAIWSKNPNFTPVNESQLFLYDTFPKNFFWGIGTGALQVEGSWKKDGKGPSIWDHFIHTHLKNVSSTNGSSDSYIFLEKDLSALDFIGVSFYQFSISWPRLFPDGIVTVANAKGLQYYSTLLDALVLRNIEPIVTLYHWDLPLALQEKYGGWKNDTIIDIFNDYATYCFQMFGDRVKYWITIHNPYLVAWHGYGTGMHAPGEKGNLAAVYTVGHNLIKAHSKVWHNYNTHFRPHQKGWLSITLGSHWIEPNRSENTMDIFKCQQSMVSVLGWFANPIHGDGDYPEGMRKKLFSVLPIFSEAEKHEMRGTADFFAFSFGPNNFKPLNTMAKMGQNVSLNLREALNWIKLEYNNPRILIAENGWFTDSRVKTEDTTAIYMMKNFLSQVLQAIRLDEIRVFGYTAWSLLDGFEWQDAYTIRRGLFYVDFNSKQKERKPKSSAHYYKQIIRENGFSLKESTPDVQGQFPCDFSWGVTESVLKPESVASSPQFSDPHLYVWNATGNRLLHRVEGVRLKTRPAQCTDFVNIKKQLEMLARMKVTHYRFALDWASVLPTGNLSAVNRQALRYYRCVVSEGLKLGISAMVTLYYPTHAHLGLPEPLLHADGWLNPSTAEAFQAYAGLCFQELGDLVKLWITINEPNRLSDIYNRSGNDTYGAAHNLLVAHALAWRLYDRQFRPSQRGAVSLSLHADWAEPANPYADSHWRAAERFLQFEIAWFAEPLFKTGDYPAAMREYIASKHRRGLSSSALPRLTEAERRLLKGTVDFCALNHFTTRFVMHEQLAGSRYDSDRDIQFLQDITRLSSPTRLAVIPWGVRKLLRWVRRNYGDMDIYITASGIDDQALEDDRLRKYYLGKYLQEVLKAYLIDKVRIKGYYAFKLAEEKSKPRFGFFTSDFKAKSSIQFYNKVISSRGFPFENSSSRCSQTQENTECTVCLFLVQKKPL

T3: cynomolgus monkey beta klotho protein (soluble, used in Biacore) (cynomolgus monkey (Macaca fascicularis), UniProt Q86Z14 53-996 (human entry), limits assumed)
T3 construct: Protein in solution; also called Cyno KLB; cyKLB
T3 chain: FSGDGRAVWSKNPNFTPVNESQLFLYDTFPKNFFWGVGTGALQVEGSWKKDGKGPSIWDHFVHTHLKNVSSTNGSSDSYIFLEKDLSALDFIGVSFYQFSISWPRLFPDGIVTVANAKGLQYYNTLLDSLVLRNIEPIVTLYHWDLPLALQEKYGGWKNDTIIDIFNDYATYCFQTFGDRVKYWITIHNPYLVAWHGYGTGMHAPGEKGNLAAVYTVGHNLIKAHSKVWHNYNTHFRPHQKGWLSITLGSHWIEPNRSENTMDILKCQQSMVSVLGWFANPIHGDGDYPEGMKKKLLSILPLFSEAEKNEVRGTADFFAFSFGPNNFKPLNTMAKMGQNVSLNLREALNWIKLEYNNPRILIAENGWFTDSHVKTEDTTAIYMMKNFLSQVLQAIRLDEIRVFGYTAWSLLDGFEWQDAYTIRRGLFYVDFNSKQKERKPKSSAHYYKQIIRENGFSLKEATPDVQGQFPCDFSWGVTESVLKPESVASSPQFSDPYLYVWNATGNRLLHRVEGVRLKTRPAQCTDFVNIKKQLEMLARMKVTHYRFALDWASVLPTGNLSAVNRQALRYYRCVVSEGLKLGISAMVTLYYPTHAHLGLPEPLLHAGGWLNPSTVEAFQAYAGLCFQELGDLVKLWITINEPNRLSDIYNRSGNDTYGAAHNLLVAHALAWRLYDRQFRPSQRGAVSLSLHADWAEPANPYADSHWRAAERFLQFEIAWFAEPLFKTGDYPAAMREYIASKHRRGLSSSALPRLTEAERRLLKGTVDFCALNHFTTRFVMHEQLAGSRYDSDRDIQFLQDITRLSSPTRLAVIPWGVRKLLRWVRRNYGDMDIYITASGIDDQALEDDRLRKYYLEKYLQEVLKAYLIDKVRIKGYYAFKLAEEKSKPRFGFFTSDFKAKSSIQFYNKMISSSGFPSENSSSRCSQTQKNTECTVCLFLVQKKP


Columns and labels:
[1] = molecular target: T4, human beta klotho / human FGFR1c receptor complex on cells (human, UniProt Q86Z14 1-1044; P11362 22-822); test: cell-based or functional assay
[2] = molecular target: cynomolgus beta klotho / human FGFR1c receptor complex on cells (cynomolgus monkey (Macaca …)); test: cell-based or functional assay
[3] = molecular target: T4, human beta klotho / human FGFR1c …; test: cell-based or functional assay; remark: listed apart in the source
Target sequence in this assay (P11362 22-822 limits assumed, chain 2 of 2, one chain of several): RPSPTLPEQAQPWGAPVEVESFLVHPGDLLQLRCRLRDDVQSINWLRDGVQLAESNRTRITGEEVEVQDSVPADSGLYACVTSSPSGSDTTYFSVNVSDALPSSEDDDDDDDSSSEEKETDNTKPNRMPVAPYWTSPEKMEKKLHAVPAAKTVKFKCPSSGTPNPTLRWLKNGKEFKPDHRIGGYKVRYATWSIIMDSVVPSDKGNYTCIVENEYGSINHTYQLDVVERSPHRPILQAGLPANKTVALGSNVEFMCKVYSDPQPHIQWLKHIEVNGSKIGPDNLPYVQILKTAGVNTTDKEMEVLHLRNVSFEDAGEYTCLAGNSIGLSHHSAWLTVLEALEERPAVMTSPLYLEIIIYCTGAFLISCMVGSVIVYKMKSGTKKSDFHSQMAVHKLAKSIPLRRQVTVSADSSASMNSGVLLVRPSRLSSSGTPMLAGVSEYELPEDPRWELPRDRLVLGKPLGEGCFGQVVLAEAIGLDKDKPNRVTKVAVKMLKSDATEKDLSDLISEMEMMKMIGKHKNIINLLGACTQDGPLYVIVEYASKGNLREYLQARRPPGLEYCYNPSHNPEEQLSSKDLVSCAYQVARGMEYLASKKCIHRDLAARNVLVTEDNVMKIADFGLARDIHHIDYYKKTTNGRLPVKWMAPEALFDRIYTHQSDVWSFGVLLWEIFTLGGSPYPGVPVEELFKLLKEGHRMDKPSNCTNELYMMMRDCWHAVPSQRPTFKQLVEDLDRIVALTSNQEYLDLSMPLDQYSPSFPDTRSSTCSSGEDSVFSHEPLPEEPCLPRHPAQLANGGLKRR

[4] = molecular target: T1, human beta klotho expressed on cells; test: FACS competition on HuKLB-overexpressing cells; row antibody unlabelled; competitor 3I13-Alexa488 (labelled, EC10); MFI of the label
Experimental: (§1) For example, for competition binding assays by FACS analysis, antibody standards were prepared that were conjugated to a fluorochrome using either A488 or A647 antibody labeling kit (Invitrogen) following manufacturer's instructions. A dose titration of the conjugated antibody standard was evaluated using HuKLB overexpressing cells. The plateau of the maximal signal of antibody binding is EC=100 and the background signal is EC=0. Competition by FACS against the fluorochrome labeled antibody was performed by pre-incubating HuKLB overexpressing cells with hybridoma supernatants for 15 minutes at room temperature. Without washing, an EC=10 concentration of A488 or A647 labelled antibody standard was added. EC=10 for an individual antibody was determined by 10% of signal using the maximum signal as (100%) and background signal as (0%). After 30 minutes at 4° C., cells are washed and analyzed by FACS. […] A partial competing antibody is one sample that show signal between labelled antibody alone and background. Antibodies that show complete competition against the same standard antibody are considered to be in the same bin.
(§2) Representative results are shown in Table 12 below reported as mean fluorescence intensity (MFI).

[5] = molecular target: T1, human beta klotho expressed on cells; test: FACS competition on HuKLB-overexpressing cells; row antibody unlabelled; competitor 5H23-Alexa647 (labelled, EC10); MFI of the label
Experimental: as §1, §2

[6] = molecular target: T4, human beta klotho / human FGFR1c …; test: cell-based or functional assay; remark: listed apart in the source
Target sequence in this assay (P11362 22-822 limits assumed, one chain of several): as the sequence (P11362 22-822 limits assumed, chain 2 of 2, one chain of several) above

[7] = molecular target: T2, human beta klotho protein (soluble, …); test: Biacore SPR (as in Example 2)
[8] = molecular target: T3, cynomolgus monkey beta klotho protein …; test: Biacore SPR (as in Example 2)

Sequence of cynomolgus beta klotho / human FGFR1c receptor complex on cells (cynomolgus monkey (Macaca …)) (chain, as listed by the source limits assumed, chain 1 of 2): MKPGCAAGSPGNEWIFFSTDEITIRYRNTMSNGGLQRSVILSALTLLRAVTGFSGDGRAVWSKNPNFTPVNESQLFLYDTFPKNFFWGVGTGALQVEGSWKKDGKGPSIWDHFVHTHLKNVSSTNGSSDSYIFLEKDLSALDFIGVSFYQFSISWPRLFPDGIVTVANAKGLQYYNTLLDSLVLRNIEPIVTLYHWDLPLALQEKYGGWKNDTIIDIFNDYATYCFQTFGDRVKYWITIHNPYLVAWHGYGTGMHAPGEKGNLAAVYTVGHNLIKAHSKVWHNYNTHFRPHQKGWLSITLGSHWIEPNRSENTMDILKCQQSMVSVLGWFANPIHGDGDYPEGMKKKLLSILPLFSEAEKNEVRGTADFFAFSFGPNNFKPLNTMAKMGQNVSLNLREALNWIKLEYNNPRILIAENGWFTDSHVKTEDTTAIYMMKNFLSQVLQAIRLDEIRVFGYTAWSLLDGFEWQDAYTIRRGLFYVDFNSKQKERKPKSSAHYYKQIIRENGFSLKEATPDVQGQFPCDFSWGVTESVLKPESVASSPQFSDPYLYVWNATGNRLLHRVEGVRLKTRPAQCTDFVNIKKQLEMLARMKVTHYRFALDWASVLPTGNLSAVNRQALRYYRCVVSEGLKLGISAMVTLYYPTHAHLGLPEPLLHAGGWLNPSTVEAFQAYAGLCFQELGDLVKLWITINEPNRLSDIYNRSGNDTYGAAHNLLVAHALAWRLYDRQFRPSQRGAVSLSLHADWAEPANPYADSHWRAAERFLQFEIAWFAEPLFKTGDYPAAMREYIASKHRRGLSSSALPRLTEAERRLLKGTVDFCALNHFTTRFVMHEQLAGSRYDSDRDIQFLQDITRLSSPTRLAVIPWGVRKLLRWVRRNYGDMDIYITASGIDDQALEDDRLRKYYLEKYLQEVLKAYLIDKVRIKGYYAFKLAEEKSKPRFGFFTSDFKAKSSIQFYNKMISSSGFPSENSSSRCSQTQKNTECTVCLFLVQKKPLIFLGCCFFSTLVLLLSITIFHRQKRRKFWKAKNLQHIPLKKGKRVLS
Sequence of cynomolgus beta klotho / human FGFR1c receptor complex on cells (cynomolgus monkey (Macaca …)) (chain, as listed by the source limits assumed, chain 2 of 2): as the sequence (P11362 22-822 limits assumed, chain 2 of 2, one chain of several) above

Row | HEK293 huKLB/R1c reporter assay EC50, Experiment - A [1] | HEK293 huKLB/R1c reporter assay EC50, Experiment - B [1] | HEK293 cynoKLB/R1c reporter assay EC50, Experiment - A [2] | HEK293 cynoKLB/R1c reporter assay EC50, Experiment - B [2] | hAdip pERK assay EC50, Experiment - B [3] | Mean Florescence Intensity (MFI) [4] | Mean Florescence Intensity (MFI) [5] | EC50-adipocyte [6] | EC50 reporter assay [6] | Kd [7] | Kd [8] | Binder
1 | 0.231 nM | 0.127 nM | 2.35 nM | 2.45 nM | 1.3 nM | 29 MFI | 2.2 MFI | – | – | – | – | antibody 1G19 (antibody, V domains shown, Murine monoclonal antibody) VH: QVQLQESGPGLVKPSQSLSLTCSVTGYSITSGYYWNWIRQFPGNKLEWMGYINYGGSNNYNPSLKNRISITRDTSKNQFFLKLTSVTTEDTATYYCARRGAYYSNYDSFDVWGTGTTVTVSS VL: DIKMTQSPSSMYASLGERVTITCKASQDINSYLSWFQQKPGKSPKTLIYRANRLVDGVPSRFSGSGSGQDYSLTISSLEYEEMGIYYCLQYDEFPYTFGGGTKLEIK
2 | – | – | – | – | – | – | – | 5.5 nM | 0.68 nM | 0.23 nM | 0.59 nM | humanized 5H23 antibody vH3-vL2 (antibody, human IgG1, kappa, V domains shown, Probably the same antibody as m13; also called vH3 (vL2 group)) VH: QVQLQQSGAEVKKPGASVKVSCKASGYTFTSYDINWVRQAPGQGLEWIGWIYPGDGSTKYNEKFKGKATITRDTSASTAYMELSSLRSEDTAVYFCARSDYYGSRSFAYWGQGTLVTVSS VL: DIVMTQSPDSLAVSLGERATINCRASKSVSTSGYVYMHWYQQKPGQPPKLLIYLASYLESGVPDRFSGSGSGTDFTLTISSVQAEDVAVYYCQHSRDLTFPFGGGTKLEIKR
